In publication PMC6034511:

Test system: HIV-1 RT p66/p51 wild type (HIV-1)
Assay: fluorescence polarization
Conditions: not stated in the held text (SI Experimental section)

5'-fluorescein DNA/RNA hybrid
Kd: 3.5 nM
